# Assay results as given in patent US9658208B2, “Methods and G proteins for screening and identifying ligands of G protein-coupled receptors” (Fred Hutchinson Cancer Research Center, priority 2011, dated 2017).
# B1: Gαs-Gαt-13: Gαs-based chimeric G protein, final 13 C-terminal amino acids substituted with those of Gαt (protein)
# chain: MGCLGNSKTEDQRNEEKAQREANKKIEKQLQKDKQVYRATHRLLLLGAGESGKSTIVKQMRILHVNGFNGEGGEEDVPDYASNSDGEKATKVQDIKNNLKEAIETIVAAMSNLVPPVELANPENQFRVDYILSVMNVPNFDFPPEFYEHAKALWEDEGVRACYERSNEYQLIDCAQYFLDKIDVIKQADYVPSDQDLLRCRVLTSGIFETKFQVDKVNFHMFDVGGQRDERRKWIQCFNDVTAIIFVVASSSYNMVIREDNQTNRLQEALNLFKSIWNNRWLRTISVILFLNKQDLLAEKVLAGKSKIEDYFPEFARYTTPEDATPEPGEDPRVTRAKYFIRDEFLRISTASGDGRHYCYPHFTCAVDTENIRRVFNDCRDIIIKENLKDCGLF
# modifications: Chimeric protein
# notes: Gαs-based chimeric G protein, final 13 C-terminal amino acids substituted with those of Gαt
# Tested on: nine GPCRs that do not bind to Gαs (serotonin 1b, neuropeptide Y1, leukotriene B4, dopamine D4, GNRH, UDP, calcium-sensing, T1R2/T1R3)
# Experiment: CRE-SEAP reporter gene assay, coupling of chimeric G proteins with a variety of GPCRs
# Format: cell-based
# Conditions: HEK-293 cells, GPCR ligand 48 hours
# Text: The GPCRs examined were those that couple with Gαi/Gαo subunits (serotonin 1b, neuropeptide Y1, leukotriene B4, and dopamine D4), Gαq (GNRH, UDP, and calcium-sensing receptors), and the orphan mammalian sweet taste receptor complex (T1R2 and T1R3) with unknown coupling preference. The Gαs-based chimeric G proteins examined in this example were Gαs-Gαi-5, Gαs-Gαt-13 (SEQ ID NO: 3), Gαs-Gαo-13 (SEQ ID NO: 4), Gαs-Gαi-13 (SEQ ID NO: 5), Gαs-Gαz-6 (SEQ ID NO: 18), Gαs-Gα15-13 (SEQ ID NO: 7), Gαs-Gαk-5 (SEQ ID NO: 2), and Gαs-Gαq-13 (SEQ ID NO: 8). The chimeric G protein constructs were prepared as described herein. For the coupling assay, HEK-293 cells were cotransfected with each of the Gαs-based chimeric G protein constructs of interest together with the CRE-SEAP reporter gene construct and a cDNA encoding the GPCR to be tested. The transfected cells were cultured in the presence or absence of a GPCR ligand and then assayed for SEAP activity.
# Chimeric G protein cloning: An insert containing rat Gαs cDNA was cut out using the restriction enzymes SaII and HinDIII, and ligated into pcDNA3.1(−) cut with XhoI and HinDIII. The chimeric G proteins with the desired C-terminal amino acid substitutions from the Gαi, Gαt, Gαo, Gαz, Gα15, Gαk, and Gαq were prepared by PCR using Gαs as a template. More specifically, Gαs was PCR amplified between an internal EcoRI site and the stop codon, with a 3′ HinDIII placed immediately after the stop codon. A different 3′ oligonucleotide was used for each Gαs chimera and contained a 39 bp sequence that encoded the substituted amino acids at the C-terminus selected from the donor Gα subunit.
# GPCR cloning: Mouse 5-HT1B, mouse dopamine D4, human GNRH, and human neuropeptide Y1 receptors were cloned by PCR from cDNA templates (ATCC) and ligated into pcDNA 3.1(−) (Invitrogen) for expression in mammalian cells. […]
# Following transfection, the cells were maintained for 48 hours in 200 ul serum free media containing GPCR ligand. […] Fluorescence was then measured using a CytoFluor 4000 multi well plate reader (Applied Biosystems).
molecule,measurement,value
B1,GPCRs tested that coupled to the chimera,All but one
